Laboratory results: the nanobody polyreactivity screen of Harvey et al. (2022)

Experiment: yeast display, Sf9 membrane polyspecificity reagent, FACS + sequencing; frameworks hold sequencing errors
Outline: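 Nanobodies came from a synthetic yeast display library in Saccharomyces cerevisiae BJ5465, induced with galactose for 36–48 hours and stained for 1 hour at 4 °C with 10% biotinylated, detergent-solubilized Sf9 membrane reagent. Cells were enriched on streptavidin microbeads and then FACS-sorted, with low and high (top ~1%) gates set on anti-HA fluorescence for expression and streptavidin fluorescence for reagent binding. Each polyreactivity label reflects the gate a clone came from. Genes were amplified by colony PCR, sequenced by MiSeq 2 × 250 and filtered by CDR length.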

## QVQLVESGGGLVQAGGSLRLSCAASGSTFRINAMGWYRQAPGKERELVAAISRSGSITYYADSVKGRFTISRDNAKNTVYLQMNSLKPEDTAVYYCAAKSRKGGDYWGQGTQVTVSS
  polyreactivity (PSR sort gate): high polyreactivity

## QVQLVESGGGLVQAGGSLRLSCAASGSIFPPYAMGWYRHAPGKERELVATITIRGGSTYYADSVKGRFTISRDNAKNTVYLQMNSLKPEDTAVYYCAADYSKYYRRYYYWGQGTQVTVSS
  polyreactivity (PSR sort gate): high polyreactivity

## QVQLVESGGGLVQAGGSLRLSCAASGSTFDPNALGWYRQAPGKERELVAAISYTGGRTYYADSVKGRFTISRDNAKNTVYLQMNSLKPEDTAVYYCAVLVVGSTTQDEPYFSGVEHDYWGQGTQVTVSS
  polyreactivity (PSR sort gate): low polyreactivity

## QVQLVESGGGLVQAGGSLRLSCAASGITFKRYAMGWYRQAPRKERELVAAITTSGGSTYYADSVKGRFTNSRDNAKNTVYLLMNSLKPEDTAVNYCNAEDYWGKYYYWGQGTQVTVSS
  polyreactivity (PSR sort gate): low polyreactivity

## QVQLVESGGGLVQAGGSLRLSCAASGSTFDPNAMGWYRQAPGKERELVAAITSGGSTYYADSVKGRFTISRDNAKNTVYLQMNSLKPEDTAVYYCNAPLEWGVYAAQNWDDGYWGQGTQVTVSS
  polyreactivity (PSR sort gate): low polyreactivity

## QVQLVESGGGLVQAGGSLRLTCAASGSIFRTNTMGWYRQAPGKVRELVAAITAIGDSTYYADSVKGRFTISRDNANNTVYLQMNSLKPEDTAVYYCAAEKVSWGYHFYSSYDYWGQGTQVTVSS
  polyreactivity (PSR sort gate): low polyreactivity

## QVQLVESGGGLVQAGGSLRLSCAASGSTVVYNVMGWYRQAPGKEREVVAAFRWRGGSTYADSVKGRFTISRDNAKNTVYLQMNCLKPEDTAVYYCAAGIPRYWYAGHYDYWGQGTQVTVSS
  polyreactivity (PSR sort gate): low polyreactivity

## QVQLVESGGGLVQAGGSLLLTCAASGITFGLYAMGWYREAPGKERELVAAIFSGGITYYADSVKGRFTISRDNAKNTVYLQMNSRKPVDTAVYYCAAYKYSYKYYYWGQGTQVTVSS
  polyreactivity (PSR sort gate): low polyreactivity

## QVQLVESGGGLVQAGGSLRLSCAASGSILYVYAMGWYRQAPGKERELVATITGRVVSTNYADSVKGRLTISRDNAKNTVYLQMNSLKPEDTAVYYCAARTRRRRGEYDYWGQGTQVTVSS
  polyreactivity (PSR sort gate): high polyreactivity

## QVQLVESGGGLVQAGGSLRLTSADSGSTFSFSAMRWYRQAPGKERELVAAIRSSVGSTYYADSVKGRFTISRDNAKNTVYLQMNSLKPEDTAVYNCAATTHWFRSYREFYYWGQGTQVTVSS
  polyreactivity (PSR sort gate): high polyreactivity

## QVQLVESGGGLVQAGGSLRLSCAASGFIFYINAMGWYRQAPGKERELVAAISTSGGSTYYADSVKGRFTISRDNAKNTVYLQMNSLKPEDTAVYYCAAEGSYWYYSYDYWGQGTQVTVSS
  polyreactivity (PSR sort gate): high polyreactivity

## QVQLVESGGGLVQAGGSLRLSCAASGITFYTNAMGWYRQAPGKERELVAAISSGDSTNYADSVKGRFTISRDNAKNTVYLQMNSLKPEDTAVYYCAKEATQLVWIGMDYWGQGTQVTVSS
  polyreactivity (PSR sort gate): low polyreactivity

## QVQLVESGGGVVQAGGSLRLSCAASGITFGWDAMGWYRQAPGKERELVASISSSGSTNYADSVKGRFTISRDNAKNTVYLQMNSLKPEDTAVYYCNKDYLLRHYYIYVIEGDYWGQGTQVTVSS
  polyreactivity (PSR sort gate): low polyreactivity

## QVQLVESGGGLVQAGGSLRLSCAASGRTFTIYARGWYRHAPGKERELVAAISSGSRTYYADSVKGRFTISRDNAKNTVYLQMNSLKPEDTAVYYCAASLTRHGYYRLFDYWGQGTQVTVSS
  polyreactivity (PSR sort gate): high polyreactivity

## QVQLVESGGGIVQAGGSLRLICAASGYTFNYYAMGWYRQAPGKEREFVASTYADSVKGRFTISRDNAKNTVYLQMNSLKPEDTAVYYCNARNLGRYLVLSYGYWGQGTQVTVSS
  polyreactivity (PSR sort gate): low polyreactivity

## QVQLVESGGGLVQAGGSLRLSCAASGSTFYPYALGWYRQAHGKVRELVATISFSGGRTYYADSVKGRFTISRDNAKNTVYLQMHSLKPEDTAVYYCAAVSYWHDGHRGNYWGQGTQVTVSS
  polyreactivity (PSR sort gate): low polyreactivity

## QVQLVESGGGLVQAGGSLRLSCAASGSTFYIYAMGWYRPAPGKERELVARISGSGGSTYYADSVKGRFTISRDNAKNTVYLQMNSLKPEDTAVYYCAADDIYKYYQYYAFPYYRYDYWGQGTQVTVSS
  polyreactivity (PSR sort gate): low polyreactivity

## QVQLVESGGGLVQAGGSLRLSCAASGSTFRYNVMGWYRQAPGKERDLVAAITRRGSRTYYADSVKGRFTISRDNAKNTVYLQMNSLKPEDTAVYYCNKYSLSVPANDDYWGQGSQVTVSS
  polyreactivity (PSR sort gate): high polyreactivity

## QVQLVESGGGLFQAGGSLRLSCAASGRTFWRYAMAWYRQAPGKERELVARISWRGGSTNYADSVKGRFTISRDNAKNTVYLQMNSLKPAETAVYYFNAEVLNYLVFGYQLGYDYWGQGTQGTVSS
  polyreactivity (PSR sort gate): low polyreactivity

## QVQLVESGGGLVQAGGSLRLSCASSGSTVSVNAMGWSRQAPGKESEFVASISKRGGSTYYADSVKGRFTISRDNAKNTVYLQMNSLKPEDTAVYYCARVLTGPGRLDYWGQGTQVTVSS
  polyreactivity (PSR sort gate): high polyreactivity

## QVQLVESGGGLVQAGGSLRLSCAASGINFRSYAMGWYRQAPGKERELVAAISSTGRTYYADSVKGRFTISRDNAKNTVYLQMISLKPEDTAVYYCNSKRYIWGQGTQVTVSS
  polyreactivity (PSR sort gate): high polyreactivity

## QVQLVESGGGLVQAGGSLRLSCAASGSIFGSYAMGWYRQAPGKERELVAAITSGGSTYADSVKGPFTISRDNPNKTVYLQMNSQKPDDTAVYYSNAKFYHSTSTLVQSEYDYWGQGTQVSVSS
  polyreactivity (PSR sort gate): low polyreactivity

## QVQLVESGGGLVQAGGSLRLSCAASGSTFYVNAMGWYRQAPGKERELVAAITSGGSTKYADSVKGRYTISCDNAKNTVYLQMNSLKPEDTAVDDCAAPRGRALSKVRYDDEYWGQGTQVTVSS
  polyreactivity (PSR sort gate): high polyreactivity

## QVQLVESGGGLVQAGGSLRLSCAASGFTLFVYTMGWYRQAPGKERELVAAISSGDSTYYADSVKGRFTISRDNAKNTVYLQMNSLKPEDTAVYYCAAEWSGEAAWQVGAEDDYWGQGTQVTVSS
  polyreactivity (PSR sort gate): low polyreactivity

## QVQLVESGGGLVQAGGSLRLSCAASGSTFYINAMGWSRQAPGKEREFVAAIDWGGGTTYYADSVKGRFTISRDNAMNTVYLQMNRLKPEDTAVYYCAAERNYWSTQYYYWGQGTQVTVSS
  polyreactivity (PSR sort gate): high polyreactivity

## QVQLVESGGGLVQAGGSLRLSCAASGYIPYCYAMGWYRQAPGKERELVAAISSGGNTYYADSVKGRFTISRDNAKNTVYLQMNSLKPEDTAVYYCAAEFRNYIFHYKYNYWGQGTQVTVSS
  polyreactivity (PSR sort gate): high polyreactivity

## QVQLVESGGGLVQAGGSLRLSCSASGITFWLYDKGWYIQAPGKERELVARITYSGTSTYYADSVKGRFTISRDNAKNTVYLQMNSLEPEDTAVYYCAADLTYHYPRYITYEYWGQGTQVTVSS
  polyreactivity (PSR sort gate): low polyreactivity

## QVQLVESGGGLVQAGGSLRLSCAASGSIFSPNAMGWYRQAPGKERELVAGITRSGGRTYYADSVKGRFTISRDNAMNTVYLQMNSLKPEDTAVYYCAARAFSYGLKYDYWGQGTQVTVSS
  polyreactivity (PSR sort gate): high polyreactivity

## QVQLVESGGGLVQAGGSLRLSCAASGRILGDYAMGWYRQAPGKEREFVAAIDYNGGSTNYADSVMGRFTISRDNAKNTVYLQMNSLKPEDTAVYYCAKTDGFYRGYGYWGQGTQVTVSS
  polyreactivity (PSR sort gate): low polyreactivity

## QVHLQESGGLVQAGGLRLSCAASGSVSYQEAMGWYPQAPGKERELVATISFGANTNYADSVKGRFTISRDNAKNTVYLQRNCLKPEDTAVYYCAAESLFDDYYGYWGQGTQVTVSS
  polyreactivity (PSR sort gate): low polyreactivity

## QVQLVESGGGLVQAGGSLRLSCAASGRTFGIKAMGWYRQAHGKERELVAVISFGDGGTYYADSVKGRFTISRDNAKNTVYLQMNSLKPEDTAVYYCATDYQSTSVWGGHFVINPYDYWGQGTQVTLSS
  polyreactivity (PSR sort gate): low polyreactivity

## QVQLVESGGGLVQAGGSLRLSCAASGFIFDSYAMGWYRQAPGKERELVAAISWSGGRTYYADSVKGRFTISRDNAKYTVYLQMNSLKPEDTAVYYCNVRTKLSSSYDYWGQGTQVTVSS
  polyreactivity (PSR sort gate): high polyreactivity

## QVQLVESGGGLVQAGGSLRLSCAASGITFDWYTLGWYSQAPGKERELVAAISRNGGSTYYADSVKGRFTISRDNAKNTVYLQMNSLKPEDTAVYYCAAPLTYLYYGYDYWGQGTQVTVSS
  polyreactivity (PSR sort gate): high polyreactivity

## QVQLVQSGGGLVQAGGSLRLSCAASGYILNPYAMGWYRPAPGKERELVAAITSGTITYYADSVKGRFTITRDNAKNTVYLQMNSLKPEDTAVYYCAADSWAHYESYDYWGQGTQVTVSS
  polyreactivity (PSR sort gate): low polyreactivity

## QVQLVESGGGLVQAGGSLRLSCAASGRTFYKNAIGWYRQAPGKERELVAAITATYYADSVKGRFTISRDNAKNTVYLQMNSLKPEDTAVYYCNAYLYPKQPLSPPYPTFEGGYCGQGTQVTVSS
  polyreactivity (PSR sort gate): low polyreactivity

## QVQLVESGGGLVQAGGSLRLSCAASGIILIHNAMGWYRQARGKERELVAAISTRGGRTYYADSVKGRFTISRDNAKNTVYLQMNSLKPEDTAVYYCAAYRTTPYRDYKMDYLGQGTQVTVSS
  polyreactivity (PSR sort gate): high polyreactivity

## QVQLVESGGGLVQAGGSLRLSCAASGLIFVWYAMGWYRQAPGKERELVAAITRSGGSTYYADSVKGRFTISRDNAKNTVYLQMNSLKPEDTAVYYCAARWKFPSSFYYWGQGTQVTVSS
  polyreactivity (PSR sort gate): high polyreactivity

## QVQLGESGGGLVQAGGSLRLSCAASGITFGRKTMGWYRQAPGKERELVAAIDSGGNTYADSVKGRFTISRDNAKNTVYLQMNSLKPEDTAVYYCAVDGGEFSSYGYWGQGTQVTVSS
  polyreactivity (PSR sort gate): low polyreactivity

## QVQLVESGGGLVQAGGSLRLSCAASGRTFSINAMGWYRQAPGKEREMVADITKRGSTYYADSVKGRFTISRDNAKNTVYLQMNSLKREDTAVYYCNARYRGRVYDRFGYWGQGTQVTVSS
  polyreactivity (PSR sort gate): high polyreactivity

## QVQLVESGGGLVQAGGSLRLSCAASGFTFGNYAMGWYRQAPGKERELVAAISSRGGSTYYADSVKGRFTISRDNAKNTVYLQMNSLKPEDTAVYYCNALRLEVDMGYWGQGTQITVSS
  polyreactivity (PSR sort gate): high polyreactivity

## QVQLVESGGGLVQAGGSLRLSCAASGSIFRWYDMGWYRQAPGKERELVAAITWSGSTYYADSVKGRFTISRDNAKNTVYLQMNSLKPEDTAVYYCAAGSRYSYAYTMDYWGQGTQVTVSS
  polyreactivity (PSR sort gate): high polyreactivity

## QVQLVESGGGLVQAGGSLRLSCAASGITFDYYAMGWYRQAPGKERELVASISSDSSTYYADSVKGRFTISRDNAKNTVYLQMNSLKPEDTAVYYCNAGDTTFPFYYWGQGTQVTVSS
  polyreactivity (PSR sort gate): low polyreactivity

## QVQLVESGGGLVQAGGSLRLSCAASGIIFTVYAMGWYRQPPGTERELVAAITSSGGRTYYADSVKGRFTISRDNAKNTVYLQMNSLKPDDTAVYYCAARRPGYVRKDDYWGQGTQVTVSS
  polyreactivity (PSR sort gate): high polyreactivity
